Laboratory results reported in patent EP4039268A1 (IMBA-Institut für Molekulare Biotechnologie GmbH, dated 2022).

Experiments:
Assay in all cases: ELISA screen
[1] = biological target: T1, full-length trimeric SARS-CoV-2 Spike protein (Spike-H6) (SARS-CoV-2, N-glycosylated (22 N-glycosylation sites))
T1 construct: also called trimeric Spike; full-length Spike-H6

[2] = biological target: T2, monomeric SARS-CoV-2 receptor binding domain (RBD-H6) (SARS-CoV-2, UniProt P0DTC2 319-541)
T2 construct: Made in HEK293-6E cells; also called RBD Spike; monomeric RBD

[3] = biological target: T3, human recombinant soluble ACE2 (human, UniProt Q9BYF1 18-740)
T3 construct: also called hrsACE2
T3 sequence (Q9BYF1 18-740 limits assumed): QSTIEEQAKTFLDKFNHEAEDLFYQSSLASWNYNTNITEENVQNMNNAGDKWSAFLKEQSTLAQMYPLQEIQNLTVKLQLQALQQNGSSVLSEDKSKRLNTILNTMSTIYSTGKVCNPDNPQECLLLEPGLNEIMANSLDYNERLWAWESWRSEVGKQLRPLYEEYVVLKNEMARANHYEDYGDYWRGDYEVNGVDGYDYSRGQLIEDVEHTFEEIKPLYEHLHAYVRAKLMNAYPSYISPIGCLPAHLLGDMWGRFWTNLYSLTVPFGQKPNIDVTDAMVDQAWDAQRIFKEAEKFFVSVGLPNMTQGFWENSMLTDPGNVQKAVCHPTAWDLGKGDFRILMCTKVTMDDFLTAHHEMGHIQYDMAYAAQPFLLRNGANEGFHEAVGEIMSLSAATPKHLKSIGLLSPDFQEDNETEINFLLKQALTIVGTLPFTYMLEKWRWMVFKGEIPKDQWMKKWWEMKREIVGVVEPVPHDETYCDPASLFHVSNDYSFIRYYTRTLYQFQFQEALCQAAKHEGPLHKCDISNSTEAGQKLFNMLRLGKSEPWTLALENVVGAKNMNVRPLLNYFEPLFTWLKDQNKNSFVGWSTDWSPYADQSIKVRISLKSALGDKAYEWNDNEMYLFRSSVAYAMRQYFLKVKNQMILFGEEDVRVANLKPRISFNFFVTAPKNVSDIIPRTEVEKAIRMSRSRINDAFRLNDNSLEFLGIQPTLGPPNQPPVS

Row | Binder | Mean normalized OD [1] [OD] | Mean normalized OD [2] [OD] | Mean normalized OD [3] [OD]
1 | Colec12 CRD-mouse IgG2a-Fc fusion protein (Fc fusion) FTDKCYYFSLEKEIFEDAKLFCEDKSSHLVFINSREEQQWIKKHTVGRESHWIGLTDSEQESEWKWLDGSPVDYKNWKAGQPDNWGSGHGPGEDCAGLIYAGQWNDFQCDEINNFICEGGGSGGGSGGGS | 0.04 | 0.027 | –
2 | Clec2h CRD-mouse IgG2a-Fc fusion protein (Fc fusion) FGSKCFYFSEDMGNWTFSQSSCVASNSHLALFHSLEELNFLKRYKGTSDHWIGLHRASTQHPWIWTDNTEYSNLVLTRGGGECGFLSDNGISSGRSYTHRKWICSGGGSGGGSGGGS | -0.387 | – | -0.707
3 | Ly75_1 CRD-mouse IgG2a-Fc fusion protein (Fc fusion) QIGSCYQFNNQEILSWKEAYVSCQNQGADLLSIHSAAELAYITGKEDIARLVWLGLNQLYSARGWEWSDFRPLKFLNWDPGTPVAPVIGGSSCARMDTESGLWQSVSCESQQPYVCKGGGSGGGSGGGS | -0.434 | – | -0.571
4 | Ncan CRD-mouse IgG2a-Fc fusion protein (Fc fusion) not shown | -0.09 | – | -0.589
5 | Clec2g CRD-mouse IgG2a-Fc fusion protein (Fc fusion) VGNKCFYFSEYTSNWTFAQTFCMAQEAQLARFDNEKELNFLMRYKANFDSWIGLHRESSEHPWKWTDNTEYNNMIPIQGVETCAYLSGNGISSSRHYIPRIWICSGGGSGGGSGGGS | -0.241 | – | -0.722
6 | Ly75_2 CRD-mouse IgG2a-Fc fusion protein (Fc fusion) NNGFCYLLANESSSWDAAHLKCKAFGADLISMHSLADVEVVVTKLHNGDVKKEIWTGLKNTNSPALFQWSDGTEVTLTYWNENEPSVPFNKTPNCVSYLGKLGQWKVQSCEKKLRYVCKGGGSGGGSGGGS | -0.319 | – | -0.135
7 | Clec2i CRD-mouse IgG2a-Fc fusion protein (Fc fusion) VGNKCFYFSGYPRNWTFAQAFCMAQEAQLARFDNEEELIFLKRFKGDFDCWIGLHRESSEHPWKWTNNTEYNNMNPILGVGRYAYLSSDRISSSRSYINRMWICSGGGSGGGSGGGS | -0.61 | – | -0.249
8 | Ly75_5 CRD-mouse IgG2a-Fc fusion protein (Fc fusion) IEGSEYWFVADPHLNYEEAVLYCASNHSFLATITSFTGLKAIKNKLANISGEEQKWWVKTSENPIDRYFLGSRRRLWHHFPMTFGDECLHMSAKTWLVDLSKRADCNAKLPFICEGGGSGGGSGGGS | -0.17 | – | -0.106
9 | Vcan CRD-mouse IgG2a-Fc fusion protein (Fc fusion) not shown | 0.064 | 0.052 | –
10 | Siglec10 CRD-mouse IgG2a-Fc fusion protein (Fc fusion) VQRIVKAQEGLCIFVPCSFSSPEGKWLNRSPLYGYWFKGIRKPSLSFPVATNNKDKVLEWEARGRFQLLGDISKKNCSLLIKDVQWGDSTNYFFRMERGFERFSFKEEFRLQVGGGSGGGSGGGS | 0.046 | 0.015 | –
11 | Lgals6_2 CRD-mouse IgG2a-Fc fusion protein (Fc fusion) YVGALQGGFTVRRTIIIKGYVLPTAKTFAINFRVGSSEDIALHINPRIGDCLVRNSYMNGSWGTEERMVAYNPFGPGQFFDLSIRCGMDRFKVFANGIHLFNFSHRFQALRKINTLEINGDLTLSYVHIGGGSGGGSGGGS | 0.135 | – | –
12 | Lgals9_2 CRD-mouse IgG2a-Fc fusion protein (Fc fusion) FYTPIPNGLYPSKSIMISGNVLPDATRFHINLRCGGDIAFHLNPRFNENAVVRNTQINNSWGQEERSLLGRMPFSRGQSFSVWIICEGHCFKVAVNGQHMCEYYHRLKNLQDINTLEVAGDIQLTHVQTGGGSGGGSGGGS | 0.056 | 0.033 | –
13 | Bcan CRD-mouse IgG2a-Fc fusion protein (Fc fusion) not shown | -0.111 | – | -0.538
